# Measurements: PMC11487604, “Selective, Intrinsically Fluorescent Trk Modulating Probes” (ACS Chemical Neuroscience, 2024)
# *1 amine or outer side, *2 acyl side, *3 side chain or, on linkers, in order; H or OH if unused. Where a SMILES comes first, the peptide text is derived from it. Bridges are numbered along the chain shown (N, C = ends). Where no end group is shown, it is not given here. sulfonated dichloro‑BODIPY dye = Sulfonated dichloro-BODIPY dye that cyclises the two flanking Cys through two SNAr reactions; sulfonated dichloro‑BODIPY = sulfonated dichloro-BODIPY dye attached to the two flanking Cys by SNAr reactions; X1 = COc1ccc(C2=C3C=C(S(=O)(=O)O)C([*:2])=[N+]3[B-](F)(F)n3c2cc(S(=O)(=O)O)c3[*:1])cc1
# B1: cyclo-organopeptide 5c(i) (peptide)
# peptide: CDIRGC
# modifications: linker 1-6 via sulfonated dichloro‑BODIPY dye
# notes: flanking Cys of the CX1X2X3X4C-peptide; also called NT-3 loop (i) mimic; source: synthetic peptide (Fmoc SPPS), cyclised onto BODIPY, preparative HPLC
# B2: cyclo-organopeptide 5c(ii) (peptide)
# peptide: CTQNSC
# modifications: linker 1-6 via sulfonated dichloro‑BODIPY dye
# notes: flanking Cys of the CX1X2X3X4C-peptide; also called NT-3 loop (ii) mimic; source: synthetic peptide (Fmoc SPPS), cyclised onto BODIPY, preparative HPLC
# How the values were obtained:
# [1] = target: TrkA-expressing cells (HeLa+A) (UniProt P04629); experiment: Cell survival assay in serum-free media, TrkA-expressing cells (HeLa+A); assay type: cell-based; conditions: Figure 8 summary
# Chain of TrkA-expressing cells (HeLa+A) (P04629 33-796): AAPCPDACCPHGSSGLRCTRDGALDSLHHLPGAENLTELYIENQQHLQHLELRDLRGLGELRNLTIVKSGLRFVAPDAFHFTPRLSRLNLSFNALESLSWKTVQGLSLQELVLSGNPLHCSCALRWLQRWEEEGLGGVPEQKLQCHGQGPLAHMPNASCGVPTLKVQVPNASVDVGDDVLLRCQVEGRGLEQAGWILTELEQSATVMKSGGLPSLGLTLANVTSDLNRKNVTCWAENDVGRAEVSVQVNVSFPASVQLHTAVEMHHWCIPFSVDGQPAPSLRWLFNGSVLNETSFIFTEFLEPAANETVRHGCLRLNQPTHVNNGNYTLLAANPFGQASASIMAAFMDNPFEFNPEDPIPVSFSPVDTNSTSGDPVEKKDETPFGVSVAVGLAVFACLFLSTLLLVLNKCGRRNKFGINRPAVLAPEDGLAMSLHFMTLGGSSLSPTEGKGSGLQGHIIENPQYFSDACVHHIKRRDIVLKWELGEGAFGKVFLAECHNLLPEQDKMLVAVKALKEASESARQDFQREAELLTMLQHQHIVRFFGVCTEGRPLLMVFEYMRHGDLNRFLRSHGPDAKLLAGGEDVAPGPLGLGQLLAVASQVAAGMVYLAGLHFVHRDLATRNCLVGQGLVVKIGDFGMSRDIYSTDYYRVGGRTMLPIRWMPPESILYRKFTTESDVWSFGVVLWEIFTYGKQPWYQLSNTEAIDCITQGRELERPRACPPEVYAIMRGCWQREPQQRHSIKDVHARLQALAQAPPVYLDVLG
# Description: Cells were seeded at a density of 2 × 10^3 cells/well in complete media in 96-well plates and incubated for 24 h to allow cells to adhere. Cells were washed with DPBS, and then, media were swapped for serum-free media of the same type as the complete media. […] Cells were suspended and live cells counted using flow cytometry (CytoFLEX LX).
# [2] = target: TrkB-expressing cells (HEK+B) (UniProt Q16620); experiment: Cell survival assay in serum-free media, TrkB-expressing cells (HEK+B); assay type: cell-based; conditions: Figure 8 summary
# Chain of TrkB-expressing cells (HEK+B) (Q16620 32-822): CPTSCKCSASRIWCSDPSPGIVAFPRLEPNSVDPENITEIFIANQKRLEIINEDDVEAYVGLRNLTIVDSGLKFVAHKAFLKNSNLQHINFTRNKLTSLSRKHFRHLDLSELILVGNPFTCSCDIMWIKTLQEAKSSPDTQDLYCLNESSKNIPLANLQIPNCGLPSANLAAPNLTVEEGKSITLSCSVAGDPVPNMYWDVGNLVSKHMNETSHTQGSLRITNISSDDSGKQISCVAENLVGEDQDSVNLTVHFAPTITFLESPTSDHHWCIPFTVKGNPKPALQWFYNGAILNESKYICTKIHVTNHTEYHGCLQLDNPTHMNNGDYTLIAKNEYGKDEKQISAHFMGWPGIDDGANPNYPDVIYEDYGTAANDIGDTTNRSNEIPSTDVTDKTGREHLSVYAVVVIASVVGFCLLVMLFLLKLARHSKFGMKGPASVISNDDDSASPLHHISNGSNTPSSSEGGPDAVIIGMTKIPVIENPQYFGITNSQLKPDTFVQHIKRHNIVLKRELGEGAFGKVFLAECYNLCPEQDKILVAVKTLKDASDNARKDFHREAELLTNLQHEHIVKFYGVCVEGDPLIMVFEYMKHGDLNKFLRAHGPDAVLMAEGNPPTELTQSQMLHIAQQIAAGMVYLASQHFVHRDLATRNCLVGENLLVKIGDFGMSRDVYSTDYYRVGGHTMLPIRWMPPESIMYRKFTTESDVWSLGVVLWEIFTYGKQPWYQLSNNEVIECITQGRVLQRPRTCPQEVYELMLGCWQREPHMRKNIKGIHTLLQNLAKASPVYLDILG
# Description: Loop mimics 5 were screened in cell survival assays to evaluate their efficacy in stimulating Trk receptors (Figure 2). Mimics were assayed for the ability to rescue cells from cell death when incubated in serum-free media (SFM) in the absence of NTs (a test for “agonism”) or in the presence of a suboptimal NT concentration (a test for NT “modulation”). Simultaneously, these assays may confirm test mimics are not cytotoxic at lower doses (though cytotoxicity assays were also performed up to higher doses, Figure S1). […] All the test compounds were screened at 50 μM concentrations initially, and then, dose response curves were measured for the hits (Table 1 and Figure 3).
# We were forced to use transfectants in different cell lines (HeLa, HEK-293, NIH-3T3 expressing TrkA, B, and C, respectively) due to difficulties in obtaining transfected cells derived from a single wild type; however, none of the cells used express TrkA-C prior to transfection. Throughout this paper, HeLa cells are denoted as “HeLa”, and their TrkA transfectants are “HeLa+A”. Similarly, HEK-293 cells are “HEK”; their TrkB transfectants are HEK+B. NIH-3T3 cells are “NIH”, and their TrkC transfectants are “NIH+C”.
# Cells were seeded at a density of 2 × 10^3 cells/well in complete media in 96-well plates and incubated for 24 h to allow cells to adhere. Cells were washed with DPBS, and then, media were swapped for serum-free media of the same type as the complete media. Cells were then treated with 50 μM compound either alone or in conjunction with suboptimal neurotrophin corresponding to the Trk receptor expressed for 48 h. Cells were washed with DPBS buffer twice and detached from the plate with 50 μL of trypsin for 3 min at 37 °C. Trypsinization was quenched with 100 μL of complete media. Cells were suspended and live cells counted using flow cytometry (CytoFLEX LX). Cell survival was normalized from cell count (CC) readings relative to optimal neurotrophin (NT = 100%) and DMSO (0%) utilizing GraphPad Prism 10.2, followed by statistical analysis via one-way ANOVA and Dunnett’s t test compared to the DMSO control. Dose response versions of this assay were conducted following the same procedure, but the data was analyzed in GraphPad Prism 10.2 using the nonlinear fit: {agonist} vs response – variable slope (four parameters) function.
# [3] = target: TrkC-expressing cells (NIH+C) (UniProt Q16288); experiment: Cell survival assay in serum-free media, TrkC-expressing cells (NIH+C); assay type: cell-based; conditions: Figure 8 summary
# Chain of TrkC-expressing cells (NIH+C) (Q16288 32-839): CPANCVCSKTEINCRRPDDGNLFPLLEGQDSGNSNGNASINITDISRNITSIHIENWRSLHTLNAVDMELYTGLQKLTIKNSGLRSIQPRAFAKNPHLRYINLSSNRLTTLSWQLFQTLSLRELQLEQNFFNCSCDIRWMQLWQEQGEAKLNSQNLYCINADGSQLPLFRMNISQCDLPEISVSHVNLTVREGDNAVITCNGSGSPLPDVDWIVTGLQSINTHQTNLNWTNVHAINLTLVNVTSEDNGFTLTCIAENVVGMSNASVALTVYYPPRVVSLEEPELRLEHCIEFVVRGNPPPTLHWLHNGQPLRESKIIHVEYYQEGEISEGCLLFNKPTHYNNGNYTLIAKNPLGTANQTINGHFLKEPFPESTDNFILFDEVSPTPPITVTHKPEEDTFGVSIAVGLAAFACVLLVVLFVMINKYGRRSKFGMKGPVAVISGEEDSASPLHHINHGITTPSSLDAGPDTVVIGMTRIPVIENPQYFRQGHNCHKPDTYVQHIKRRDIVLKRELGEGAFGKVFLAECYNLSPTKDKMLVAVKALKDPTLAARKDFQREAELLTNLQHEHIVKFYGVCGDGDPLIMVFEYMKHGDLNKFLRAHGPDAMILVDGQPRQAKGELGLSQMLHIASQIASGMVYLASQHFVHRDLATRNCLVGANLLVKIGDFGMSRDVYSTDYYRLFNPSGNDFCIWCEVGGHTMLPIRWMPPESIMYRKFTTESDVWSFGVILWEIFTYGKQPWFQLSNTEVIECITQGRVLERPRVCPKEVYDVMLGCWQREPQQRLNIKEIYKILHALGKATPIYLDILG
# Description: Loop mimics 5 were screened in cell survival assays to evaluate their efficacy in stimulating Trk receptors (Figure 2). Mimics were assayed for the ability to rescue cells from cell death when incubated in serum-free media (SFM) in the absence of NTs (a test for “agonism”) or in the presence of a suboptimal NT concentration (a test for NT “modulation”). Simultaneously, these assays may confirm test mimics are not cytotoxic at lower doses (though cytotoxicity assays were also performed up to higher doses, Figure S1). […] All the test compounds were screened at 50 μM concentrations initially, and then, dose response curves were measured for the hits (Table 1 and Figure 3). […]
# Cells were seeded at a density of 2 × 10^3 cells/well in complete media in 96-well plates and incubated for 24 h to allow cells to adhere. […] Cells were suspended and live cells counted using flow cytometry (CytoFLEX LX). Cell survival was normalized from cell count (CC) readings relative to optimal neurotrophin (NT = 100%) and DMSO (0%) utilizing GraphPad Prism 10.2, followed by statistical analysis via one-way ANOVA and Dunnett’s t test compared to the DMSO control. Dose response versions of this assay were conducted following the same procedure, but the data was analyzed in GraphPad Prism 10.2 using the nonlinear fit: {agonist} vs response – variable slope (four parameters) function.
# [4] = tested on: primary adult cortical neurons; experiment: Primary adult cortical neuron assay (neurite outgrowth and survival); assay type: cell-based, mouse; conditions: data not shown
# Source text: We next decided to test the effects of 5c(ii) on primary mouse adult cortical neurons. These neurons naturally express TrkA[84] and therefore provide a more clinically relevant substrate to test compound leads in than analogous Trk-expressing transfectants. In addition, using neurons extracted from adult mice provide increased relevance to neurodegenerative and other nervous-system related diseases and injury, since most of these primarily occur in adult populations.[85],[86] To determine any potential for preclinical applications, 5c(ii) (5 μM) was incubated with primary cortical neurons from 6-week-old male mice at the time of plating, and neuronal survival and neurite outgrowth were quantified.
# Figure 7 5c(ii) promotes neuroprotection. Primary adult cortical neurons were extracted from 6-week-old male mice and plated on 384-well PDL-coated plastic bottom plates at 10,000 cells/well. 5c(ii) at 5 μM concentration was added at the time of plating. 48 h after plating, the cells were fixed to conduct immunocytochemistry. Graph represents the mean ± SEM of (a) total neurite outgrowth per cell and (b) number of valid neurons per well. Representative images of cortical neurons treated with (c) vehicle and (d) 5 μM 5c(ii). Student’s t test. N = 3–5. *p < 0.05.
# Cortical neuron assay was conducted as previously described.[85] Briefly, wild-type 6-week-old C57Bl/6 male mice were euthanized using CO2, and the brains were removed. The cortex was isolated and transferred to a MACS C-tube and then dissociated using the Miltenyi gentleMACS octo-dissociator on a preset protocol designed for adult rodent brains. […] Images were quantified using the Neurite Outgrowth Analysis Module in MetaXpress 6 software (Molecular Devices). For quantification, the number of valid neurons is determined by quantifying the number of TUBB3^+/DAPI^+ cells in a well with ≥10 μm of total neurite outgrowth. Total neurite outgrowth is determined by dividing the length of all neurites in a well by the number of valid neurons in that respective well. […]
# TrkC = conditions: cited from earlier work
# p75 = conditions: cited from earlier work
# [5] = target: T1, TrkB (on HEK293-TrkB transfectants) (UniProt Q16620 32-822); experiment: cell-based or functional assay
# T1 sequence (Q16620 32-822): as the sequence (Q16620 32-822) above
# [6] = target: T1, TrkB (on HEK293-TrkB transfectants); experiment: cell-surface fluorescence binding on live cells (plate reader); serial dilution of the intrinsically fluorescent compound in serum-free media on adherent Trk-transfected cells, 2.5 h, washed with DPBS, dissolved in 1% SDS, ex 540/25 nm, em 620/40 nm; fluorescence of the Trk-negative parent cells subtracted; one site - specific binding fit; conditions: one partner purified
# [7] = target: T2, TrkA (on HeLa-TrkA transfectants) (UniProt P04629 33-796); experiment: cell-based or functional assay
# T2 sequence (P04629 33-796): as the sequence (P04629 33-796) above
# [8] = target: T2, TrkA (on HeLa-TrkA transfectants); experiment: cell-surface fluorescence binding on live cells (plate reader); serial dilution of the intrinsically fluorescent compound in serum-free media on adherent Trk-transfected cells, 2.5 h, washed with DPBS, dissolved in 1% SDS, ex 540/25 nm, em 620/40 nm; fluorescence of the Trk-negative parent cells subtracted; one site - specific binding fit; conditions: one partner purified
# [9] = target: T3, TrkC (on NIH3T3-TrkC transfectants) (UniProt Q16288 32-839); experiment: as above; conditions: one partner purified
# T3 construct: TrkC receptor expressed on transfected NIH-3T3 cells; also called NIH+C; NIH-TrkC; source: NIH-3T3, transfected (NIH3T3-TrkC), on live cells
# T3 sequence (Q16288 32-839): as the sequence (Q16288 32-839) above
# [10] = target: T3, TrkC (on NIH3T3-TrkC transfectants); experiment: cell-based or functional assay
# [11] = target: T2, TrkA (on HeLa-TrkA transfectants); experiment: cell-based or functional assay; remark: listed apart in the source
# [12] = target: T3, TrkC (on NIH3T3-TrkC transfectants); experiment: cell-based or functional assay; remark: listed apart in the source
molecule,measurement,setting,value
COc1ccc(C2=C3C=C(S(=O)(=O)O)C4=[N+]3[B-](F)(F)n3c2cc(S(=O)(=O)O)c3SC[C@H](NC(C)=O)C(=O)N[C@@H](CC(=O)O)C(=O)N[C@@H](CCC(=O)O)C(=O)N[C@@H](CCCCN)C(=O)N[C@@H](CCC(N)=O)C(=O)N[C@H](C(N)=O)CS4)cc1 [5a(iii)m] (Ac-CDEKQC-NH2; linker 1-6 via X1; N-terminus and C-terminus assumed),result (Trk activity assigned),[1],TrkA modulator
COc1ccc(C2=C3C=C(S(=O)(=O)O)C4=[N+]3[B-](F)(F)n3c2cc(S(=O)(=O)O)c3SC[C@H](NC(C)=O)C(=O)N[C@@H](CC(=O)O)C(=O)N[C@@H](CCSC)C(=O)N[C@@H](CO)C(=O)NCC(=O)N[C@H](C(N)=O)CS4)cc1 [5b(i)] (Ac-CDMSGC-NH2; linker 1-6 via X1; N-terminus and C-terminus assumed),result (Trk activity assigned),[2],TrkB agonist
COc1ccc(C2=C3C=C(S(=O)(=O)O)C4=[N+]3[B-](F)(F)n3c2cc(S(=O)(=O)O)c3SC[C@H](NC(C)=O)C(=O)N[C@@H](C(C)C)C(=O)N[C@@H](CO)C(=O)N[C@@H](CCCCN)C(=O)NCC(=O)N[C@H](C(N)=O)CS4)cc1 [5b(ii)] (Ac-CVSKGC-NH2; linker 1-6 via X1; N-terminus and C-terminus assumed),result (Trk activity assigned),[2],TrkB agonist
CC[C@H](C)[C@@H]1NC(=O)[C@H](CC(=O)O)NC(=O)[C@@H](NC(C)=O)CSc2c(S(=O)(=O)O)cc3n2[B-](F)(F)[N+]2=C(SC[C@@H](C(N)=O)NC(=O)CNC(=O)[C@H](CCCNC(=N)N)NC1=O)C(S(=O)(=O)O)=CC2=C3c1ccc(OC)cc1 [5c(i)] (Ac-CDIRGC-NH2; linker 1-6 via X1; N-terminus and C-terminus assumed),result (Trk activity assigned),[2],TrkB/C agonist
same,result (Trk activity assigned),[3],TrkB/C agonist
COc1ccc(C2=C3C=C(S(=O)(=O)O)C4=[N+]3[B-](F)(F)n3c2cc(S(=O)(=O)O)c3SC[C@H](NC(C)=O)C(=O)N[C@@H](CCC(=O)O)C(=O)N[C@@H](CC(N)=O)C(=O)N[C@@H](CC(N)=O)C(=O)N[C@@H](CCCCN)C(=O)N[C@H](C(N)=O)CS4)cc1 [5c(iii)] (Ac-CENNKC-NH2; linker 1-6 via X1; N-terminus and C-terminus assumed),result (Trk activity assigned),[3],TrkC agonist
NCCCC[C@@H]1NC(=O)[C@H](CCC(=O)O)NC(=O)c2cc([N+](=O)[O-])ccc2OCC[C@@H](C(=O)NCC(=O)O)NC1=O [D3],effect in primary adult cortical neuron assay,[4],no measurable effect
same,binding to TrkC,TrkC,does not bind
same,binding to p75,p75,does not bind
CVSKGC (linker 1-6 via sulfonated dichloro‑BODIPY dye) [cyclo-organopeptide 5b(ii)],"EC50 of survival of HEK293-TrkB cells in serum-free media, with suboptimal neurotrophin (0.6 nM BDNF)",[5],2800 nM
same,"EC50 of survival of HEK293-TrkB cells in serum-free media, without NT",[5],900 nM
same,Kd,[6],115 ± 66 nM
CDEKQC (linker 1-6 via sulfonated dichloro‑BODIPY) [cyclo-organopeptide 5a(iii)m],"EC50 of survival of HeLa-TrkA cells in serum-free media, with suboptimal neurotrophin (0.2 nM NGF)",[7],500 nM
same,"EC50 of survival of HeLa-TrkA cells in serum-free media, without NT",[7],2400 nM
same,Kd,[8],120 ± 3 nM
B1,"EC50 of survival of HEK293-TrkB cells in serum-free media, with suboptimal neurotrophin (0.6 nM BDNF)",[5],2200 nM
same,"EC50 of survival of HEK293-TrkB cells in serum-free media, without NT",[5],100 nM
same,Kd,[6],43 ± 2 nM
same,Kd,[9],97 ± 4 nM
CENNKC (linker 1-6 via sulfonated dichloro‑BODIPY dye) [cyclo-organopeptide 5c(iii)],"EC50 of survival of NIH3T3-TrkC cells in serum-free media, with suboptimal neurotrophin (0.2 nM NT-3)",[10],900 nM
same,"EC50 of survival of NIH3T3-TrkC cells in serum-free media, without NT",[10],800 nM
same,Kd,[9],91 ± 4 nM
B2,"IC50 of the decrease of pAKT signalling (ELFI) in PC12 cells (rat, endogenous TrkA) when competed with 10 ng/mL NT; pair blocked: NGF and TrkA",[11],7 μM
same,"IC50 of the decrease of pMAPK signalling (ELFI) in PC12 cells (rat, endogenous TrkA) when competed with 10 ng/mL NT; pair blocked: NGF and TrkA",[11],7 μM
same,IC50 of the decrease of pAKT signalling (ELFI) in NIH+C cells when competed with 10 ng/mL NT; pair blocked: NT-3 and TrkC,[12],7 μM
same,IC50 of the decrease of pMAPK signalling (ELFI) in NIH+C cells when competed with 10 ng/mL NT; pair blocked: NT-3 and TrkC,[12],35 μM
same,"EC50 of survival of HeLa-TrkA cells in serum-free media, with suboptimal neurotrophin (0.2 nM NGF)",[7],300 nM
same,"EC50 of survival of HeLa-TrkA cells in serum-free media, without NT",[7],4500 nM
same,Kd,[8],91 ± 2 nM
